# Test: Drug-release assay of nanoparticle-conjugated linker-payloads under cleavage conditions (Cat-B, redox-responsive or pH-sensitive cleaving study), RP-HPLC
# Type: in vitro ADME
# Conditions: linker-payload conjugated to DBCO-functionalized silica nanoparticle, 37° C., 24 hours
# Experimental: To assess the drug releasing profile of exemplary linker-drug conjugates, the linker-drug conjugates were each conjugated to a DBCO-functionalized ultrasmall silica nanoparticle via a click chemistry reaction between the azide groups on the linker-drug conjugate precursors and the dibenzocyclooctyne (DBCO) groups of the nanoparticles. The resulting drug-nanoparticle-conjugates were then incubated under the desired releasing conditions for release kinetics tests.
# The amount of released drugs vs non-released drugs was measured using reverse phase HPLC by analyzing the area under curve (AUC) (FIG. 10A and FIG. 10B).
# General Method: A Waters Xbridge Peptide BEH C18 column with 4.6 mm×50 mm dimensions, a particle size of 5 μm, and a pore size of 300 A was used (part number 186003622). Acetonitrile (VWR HiPerSolv Chromanorm, UHPLC Grade) was used as received without further preparation, […] trifluoroacetic acid in deionized water was prepared by adding 1 mL of trifluoroacetic acid (HPLC grade, Millipore-Sigma) into 999 mL 18.2 MΩ·cm deionized water that was generated using an IQ7000 Millipore deionized water system and passed through a 0.2 μm filter before use. The seal wash used for the system was composed of 90% 18.2 MΩ·cm deionized water and 10% methanol (HPLC grade, VWR). The injection needle was washed using a mixture of 25 vol % 18.2 MΩ·cm deionized water, 25 vol % acetonitrile, 25 vol % methanol, and 25 vol % 2-propanol. Samples were prepared in a concentration range of 0.25 to 2 μM and the injection volume ranges from 60 μL to 10 μL, respectively. Higher sample concentration can be used if detector signal is low. Vials used for all injections are fresh Waters Total Recovery vials with screw caps that have pre-slit PTFE septa (part number 186000385C).
# Method for Protease-cleavable and Redox-responsive Linkers: Before any sample injections were started, the PDA lamp was turned on and allowed to warm up for at least 30 minutes. The system and column were equilibrated with 95% 0.01% TFA in deionized water, 5% acetonitrile for at least 10 minutes at a flow rate of 1.0 mL/min after the PDA lamp had warmed up. Two blank injections, with injection volumes of 10 μL containing only 18.2 MΩ·cm deionized water, were performed before the injection of any samples for analysis. The gradient used to elute protease-cleavable and redox-sensitive linkers conjugated to hybrid silica nanoparticles, and their components began at 95% 0.01% TFA in deionized water and 5% acetonitrile and linearly changed to 15% 0.01% TFA in deionized water, 85% acetonitrile over 8 minutes. Acetonitrile composition was increased to 95% over an additional minute and held at 95% for an additional 2 minutes to ensure that any strongly retained compounds are eluted. The composition of the solvent was then changed back to the starting composition of the gradient over an additional minute and allowed to equilibrate for 3 minutes before another injection began. Between sample injections a blank injection was run to ensure that no carryover occurred.
# Method for pH-sensitive Linkers: Before any sample injections were started, the PDA lamp was turned on and allowed to warm up for at least 30 minutes. A gradient of pure deionized water and acetonitrile was used, all other consumables including column and vials were the same as for the method to purify Cat-B sensitive and redox-responsive linkers elaborated on above. Briefly the gradient composition began at 95% deionized water and 5% acetonitrile at a flow rate of 1.0 mL/min (not changed throughout the method). The composition was changed from this starting composition to 15% deionized water and 85% acetonitrile over a 12-minute period, during which the retained drug-linkers, released drug, free drug linker, and any other impurities eluted. At the 12-minute mark the composition was rapidly changed to 5% deionized water and 95% acetonitrile over the course of one minute. […]
row,SMILES,% of Payload Release in 24 Hours Under Cleavage Conditions
1,"CC[C@@]1(O)C(=O)OCc2c1cc1n(c2=O)Cc2c-1nc1cc(F)c(C)c3c1c2[C@@H](NCc1ccc(NC(=O)[C@H](CCCNC(N)=O)NC(=O)[C@@H](NC(=O)CCOCCOCCOCCOCCOCCOCCOCCOCCOCCN=[N+]=[N-])C(C)C)cn1)CC3 [Example 46, 1-azido-N-((S)-1-(((S)-1-((6-((((1S,9S)-9-ethyl-5-fluoro-9-hydroxy-4-methyl-10,13-dioxo-2,3,9,10,13,15-hexahydro-1H,12H-benzo[de]pyrano[3′,4′:6,7]indolizino[1,2-b]quinolin-1-yl)amino)methyl)pyridin-3-yl)amino)-1-oxo-5-ureidopentan-2-yl)amino)-3-methyl-1-oxobutan-2-yl)-3,6,9,12,15,18,21,24,27-nonaoxatriacontan-30-amide]",+ (‘+’ indicates 5-25% release)
2,"CCc1c2c(nc3ccc(OCc4ccc(NC(=O)[C@H](CCCNC(N)=O)NC(=O)[C@@H](NC(=O)CCOCCOCCOCCOCCOCCN=[N+]=[N-])C(C)C)cc4)cc13)-c1cc3c(c(=O)n1C2)COC(=O)[C@]3(O)CC [Example 47, 1-azido-N-((S)-1-(((S)-1-((4-((((S)-4,11-diethyl-4-hydroxy-3,14-dioxo-3,4,12,14-tetrahydro-1H-pyrano[3′,4′:6,7]indolizino[1,2-b]quinolin-9-yl)oxy)methyl)phenyl)amino)-1-oxo-5-ureidopentan-2-yl)amino)-3-methyl-1-oxobutan-2-yl)-3,6,9,12,15-pentaoxaoctadecan-18-amide]",+ (‘+’ indicates 5-25% release)
3,"CCc1c2c(nc3ccc(OCc4ccc(NC(=O)[C@H](CCCNC(N)=O)NC(=O)[C@@H](NC(=O)CCOCCOCCOCCOCCOCCOCCOCCOCCOCCN=[N+]=[N-])C(C)C)cc4)cc13)-c1cc3c(c(=O)n1C2)COC(=O)[C@]3(O)CC [Example 48, 1-azido-N-((S)-1-(((S)-1-((4-((((S)-4,11-diethyl-4-hydroxy-3,14-dioxo-3,4,12,14-tetrahydro-1H-pyrano[3′,4′:6,7]indolizino[1,2-b]quinolin-9-yl)oxy)methyl)phenyl)amino)-1-oxo-5-ureidopentan-2-yl)amino)-3-methyl-1-oxobutan-2-yl)-3,6,9,12,15,18,21,24,27-nonaoxatriacontan-30-amide]",+ (‘+’ indicates 5-25% release)
4,"CCc1c2c(nc3ccc(OCc4ccc(NC(=O)[C@H](CCCNC(N)=O)NC(=O)[C@@H](NC(=O)CCOCCOCCOCCOCCOCCOCCOCCOCCOCCOCCOCCN=[N+]=[N-])C(C)C)cc4)cc13)-c1cc3c(c(=O)n1C2)COC(=O)[C@]3(O)CC [Example 49, 1-azido-N-((S)-1-(((S)-1-((4-((((S)-4,11-diethyl-4-hydroxy-3,14-dioxo-3,4,12,14-tetrahydro-1H-pyrano[3′,4′:6,7]indolizino[1,2-b]quinolin-9-yl)oxy)methyl)phenyl)amino)-1-oxo-5-ureidopentan-2-yl)amino)-3-methyl-1-oxobutan-2-yl)-3,6,9,12,15,18,21,24,27,30,33-undecaoxahexatriacontan-36-amide]",+ (‘+’ indicates 5-25% release)
5,"CC[C@@]1(O)C(=O)OCc2c1cc1n(c2=O)Cc2c-1nc1cc(F)c(C)c3c1c2[C@@H](NC(=O)[C@@H](CCCNC(N)=O)NC(=O)[C@@H](NC(=O)CCOCCOCCOCCOCCOCCOCCOCCOCCOCCOCCOCCN=[N+]=[N-])C(C)C)CC3 [Example 50, 1-azido-N-((S)-1-(((R)-1-(((1S,9S)-9-ethyl-5-fluoro-9-hydroxy-4-methyl-10,13-dioxo-2,3,9,10,13,15-hexahydro-1H,12H-benzo[de]pyrano[3′,4′:6,7]indolizino[1,2-b]quinolin-1-yl)amino)-1-oxo-5-ureidopentan-2-yl)amino)-3-methyl-1-oxobutan-2-yl)-3,6,9,12,15,18,21,24,27,30,33-undecaoxahexatriacontan-36-amide]",+ (‘+’ indicates 5-25% release)
6,"CCc1c2c(nc3ccc(OCCCSSC(C)(C)CNC(=O)CCOCCOCCOCCOCCOCCN=[N+]=[N-])cc13)-c1cc3c(c(=O)n1C2)COC(=O)[C@]3(O)CC [Example 54, (S)-1-azido-N-(2-((3-((4,11-diethyl-4-hydroxy-3,14-dioxo-3,4,12,14-tetrahydro-1H-pyrano[3′,4′:6,7]indolizino[1,2-b]quinolin-9-yl)oxy)propyl)disulfanyl)-2-methylpropyl)-3,6,9,12,15-pentaoxaoctadecan-18-amide]",+ (‘+’ indicates 5-25% release)
7,"CCc1c2c(nc3ccc(OCCCSSC(C)(C)CNC(=O)CCOCCOCCOCCOCCOCCOCCOCCOCCOCCN=[N+]=[N-])cc13)-c1cc3c(c(=O)n1C2)COC(=O)[C@]3(O)CC [Example 55, (S)-1-Azido-N-(2-((3-((4,11-diethyl-4-hydroxy-3,14-dioxo-3,4,12,14-tetrahydro-1H-pyrano[3′,4′:6,7]indolizino[1,2-b]quinolin-9-yl)oxy)propyl)disulfanyl)-2-methylpropyl)-3,6,9,12,15,18,21,24,27-nonaoxatriacontan-30-amide]",+ (‘+’ indicates 5-25% release)
8,"CCc1c2c(nc3ccc(OCCCSSC(C)(C)CNC(=O)CCOCCOCCOCCOCCOCCOCCOCCOCCOCCOCCOCCN=[N+]=[N-])cc13)-c1cc3c(c(=O)n1C2)COC(=O)[C@]3(O)CC [Example 56, (S)-1-azido-N-(2-((3-((4,11-diethyl-4-hydroxy-3,14-dioxo-3,4,12,14-tetrahydro-1H-pyrano[3′,4′:6,7]indolizino[1,2-b]quinolin-9-yl)oxy)propyl)disulfanyl)-2-methylpropyl)-3,6,9,12,15,18,21,24,27,30,33-undecaoxahexatriacontan-36-amide]",+ (‘+’ indicates 5-25% release)
9,"CCc1c2c(nc3ccc(OCCCNC(=O)OCc4ccc(SSC(C)(C)CNC(=O)CCOCCOCCOCCOCCOCCOCCOCCOCCOCCN=[N+]=[N-])cc4)cc13)-c1cc3c(c(=O)n1C2)COC(=O)[C@]3(O)CC [Example 59, 4-((1-azido-33-methyl-30-oxo-3,6,9,12,15,18,21,24,27-nonaoxa-31-azatetratriacontan-33-yl)disulfanyl)benzyl (S)-(3-((4,11-diethyl-4-hydroxy-3,14-dioxo-3,4,12,14-tetrahydro-1H-pyrano[3′,4′:6,7]indolizino[1,2-b]quinolin-9-yl)oxy)propyl)carbamate]",+++ (‘+++’ indicates 51-75% release)
10,"CC[C@@]1(O)C(=O)OCc2c1cc1n(c2=O)Cc2c-1nc1cc(F)c(C)c3c1c2[C@@H](NC(=O)CSSC(C)(C)CNC(=O)CCOCCOCCOCCOCCOCCOCCOCCOCCOCCOCCOCCOCCN=[N+]=[N-])CC3 [Example 60, 1-azido-N-(2-((2-(((1S,9S)-9-ethyl-5-fluoro-9-hydroxy-4-methyl-10,13-dioxo-2,3,9,10,13,15-hexahydro-1H,12H-benzo[de]pyrano[3′,4′:6,7]indolizino[1,2-b]quinolin-1-yl)amino)-2-oxoethyl)disulfaneyl)-2-methylpropyl)-3,6,9,12,15,18,21,24,27,30,33,36-dodecaoxanonatriacontan-39-amide]",+++ (‘+++’ indicates 51-75% release)
11,"CCc1c2c(nc3ccc(OCCCNC(=O)OCCSSCCNC(=O)CCOCCOCCOCCOCCOCCOCCOCCOCCOCCN=[N+]=[N-])cc13)-c1cc3c(c(=O)n1C2)COC(=O)[C@]3(O)CC [Example 61, 37-Azido-8-oxo-11,14,17,20,23,26,29,32,35-nonaoxa-3,4-dithia-7-azaheptatriacontyl (S)-(3-((4,11-diethyl-4-hydroxy-3,14-dioxo-3,4,12,14-tetrahydro-1H-pyrano[3′,4′:6,7]indolizino[1,2-b]quinolin-9-yl)oxy)propyl)carbamate]",+ (‘+’ indicates 5-25% release)

# From US20230241243A1, “CARRIER PARTICLE-DRUG CONJUGATES, SELF-IMMOLATIVE LINKERS, AND USES THEREOF” (priority 2020, published 2023)
